# Test results taken from PMC11106675, “Synthesis of 1,4-azaphosphinine nucleosides and evaluation as inhibitors of human cytidine deaminase and APOBEC3A” (Beilstein Journal of Organic Chemistry, 2024).
# B1: human cytidine deaminase (hCDA) (Homo sapiens) (protein)
# chain: MAQKRPACTLKPECVQQLLVCSQEAKKSAYCPYSHFPVGAALLTQEGRIFKGCNIENACYPLGICAERTAIQKAVSEGYKDFRAIAIASDMQDDFISPCGACRQVMREFGTNWPVYMTKPDGTYIVMTVQELLPSSFGPEDLQKTQ
# notes: purchased Sigma-Aldrich SRP6372; host or cells: E. coli
# Substrate: Nc1ccn([C@H]2C[C@H](O)[C@@H](CO)O2)c(=O)n1
# Assay: UV kinetic assay of hCDA-catalysed 2'-deoxycytidine deamination
# Type: biochemical, human
# Settings: other: pH 7.4, fitted in the experiment with inhibitor β-anomer of Vb, 25.0 °C
# Procedure: We monitored the hCDA-catalysed deamination of dC at 286 nm and analysed the kinetic profiles at various inhibitor concentrations using a global regression analysis of the kinetic data using Lambert’s W function. This method provides better estimates for the Michaelis–Menten constant (KM) and maximum velocity (Vmax) than nonlinear regression analysis of the initial rate (V0). […] Then, KM for the substrate and Ki for each inhibitor were calculated, assuming competitive nature of the inhibitors (Table 1).
# We assumed that protonation of Va might result in some inhibition of hCDA. […] This means that the pH value of the assay should be close to pH 1.5 to see any meaningful effect of partially protonated compound Va, but hCDA would be denatured at this pH value. By lowering the pH value to 6.0, dZ (IIc) started to lose potency against hCDA (Table 1), which might be a result of protonation of the pyrimidine ring in dZ (IIc). […]
# Figure S10. hCDA (27nM) catalysed deamination of 2'-deoxycitidine (⁓1.5 mM) in the absence (plus) and presence of 5 µM 2'-deoxyzebularine (IIc, asterisk) monitored by measuring absorbance at 286 nm over time in 100 mM NaCl, 1 mM TCEP, 50 mM phosphate buffer at 25 °C, at pH 7.4. […]
# where mm(t) calculates the current substrate concentration with respect to the time, t. […] A summary of the measured inhibition […]
# Uncertainty of Ki was calculated using error-propagation method. […]
protein,measurement,value
B1,Km,240 ± 150 µM
